Here are results for 6 substances from patent US20180187173.

The test system of series [1] is ZFN pair 33488/33501 (engineered). The experiment in a line: cell_activity. The note with it: K562 cells.
Series [2] concerns ZFN SBS 33488 (engineered). Briefly: cell_activity. As to conditions: pair with 33501, K562 cells; 37.5% in human CD34+ cells.

As for HBBP1 paralog site, the activity in series [1] (0.005% in CD34+ cells) was 0.024 % indels. As for HBG1 paralog site, the activity in series [1] (0.000% in CD34+ cells) was 0.006 % indels. With “GGAGTCAGGTGCACCATGGTGTCTGTTT (double strand) [HBB left ZFN half-site]”, the activity in series [2] came to 66.6 % indels.

HBG2 paralog site: the activity in series [1] (0.005% in CD34+ cells) is 0.013 % indels. As for “CACCATGGTGCATCTGACTCCTGAGGAGAAGACTGCTGTCA (double strand) [HBD paralog site]”, the activity in series [1] (off-target paralog, 28.6% in CD34+ cells) was found to be 34 % indels.

Turning to HBE1 paralog site, the activity in series [1] (0.000% in CD34+ cells) is 0 % indels.
